Percent decrease of binding capacity against natural OVM data for 1 substance are collected here from paper PMC7124660.

Assay [1] concerns the target hemagglutinin of avian influenza virus H5N1 (avian influenza virus H5N1). In words: ELISA.
The target of assay [2] is hemagglutinin of avian influenza virus H1N1 (avian influenza virus H1N1). In words: ELISA. (ELISA stands for enzyme-linked immunosorbent assay.)

hemagglutinin of avian influenza virus H5N1 (avian influenza virus H5N1), sequence (Q9Q0U6 17-568): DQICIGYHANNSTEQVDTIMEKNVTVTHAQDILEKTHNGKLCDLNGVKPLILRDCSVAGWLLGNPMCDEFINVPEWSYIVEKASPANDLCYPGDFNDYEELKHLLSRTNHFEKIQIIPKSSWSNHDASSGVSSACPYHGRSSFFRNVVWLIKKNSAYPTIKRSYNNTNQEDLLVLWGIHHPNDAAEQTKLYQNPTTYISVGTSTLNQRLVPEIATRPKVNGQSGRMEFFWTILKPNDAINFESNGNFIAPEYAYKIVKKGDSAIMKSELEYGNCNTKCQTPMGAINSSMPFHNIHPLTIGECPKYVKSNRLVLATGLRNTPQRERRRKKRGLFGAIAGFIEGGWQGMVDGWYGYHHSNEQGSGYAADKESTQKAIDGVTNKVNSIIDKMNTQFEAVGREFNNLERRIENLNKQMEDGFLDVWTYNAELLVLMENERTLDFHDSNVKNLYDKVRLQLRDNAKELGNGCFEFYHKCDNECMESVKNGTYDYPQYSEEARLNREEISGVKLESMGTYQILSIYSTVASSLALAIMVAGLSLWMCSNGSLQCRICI

“Desialylated ovomucin (from UniProt Q98UI9;F1NBL0) (complex)”: the percent decrease of binding capacity against natural OVM in assay [1] came out at 71.5%; in assay [2] it was 64.2%.
